The values below are quoted from earlier work in US9919022B2, “Use of angiotensin II (AII) receptor agonists to prevent or reduce hemodialysis-associated skeletal muscle cramps” (priority 2015, dated 2018).

Where two headings read alike, the source gives them in different places.

In the case of “H-Asp-Arg-Val-Tyr-Ile-His-Pro-Phe-OH (H-DRVYIHPF-OH; listed as Homo sapiens) [angiotensin II]”, the terminal serum half-life entry (serum) was “less than 30 minutes”. As to “Arg-Val-Tyr-Ile-His-Pro-Phe [Angiotensin III]”, the serum half-lives result (in vivo) is given as “less than one”. On to `CC[C@H](C)[C@H](NC(=O)[C@H](Cc1ccc(O)cc1)NC(=O)[C@@H](N)C(C)C)C(=O)N[C@@H](Cc1cnc[nH]1)C(=O)N1CCC[C@H]1C(=O)N[C@@H](Cc1ccccc1)C(=O)O` [angiotensin IV, Val-Tyr-Ile-His-Pro-Phe], for which, where the note is “serum”, the serum half-lives entry is “less than one”.
